Results: patent publication US8987192B2, “Potent and selective mediators of cholesterol efflux” (The Regents of the University of California, priority 2006, dated 2015)
“Also recorded” adds a separate entry of the source. Where a SMILES comes first, the peptide text is derived from it. Where no end group is shown, it is not given here.

Key:
[1] = Pharmacokinetic analysis with monophasic decay model; assay type: in vivo
Description: Position 11, i.e., A, in the polypeptide of SEQ ID NO:4 can be substituted with other non-polar (hydrophobic) amino acids as well as other polar non-charged amino acids.

[2] = target: ABCA1 (Mus musculus, UniProt P41233); assay: Cholesterol efflux from [3H]cholesterol-labeled ABCA1-expressing J774 mouse macrophages; assay type: cell-based; parameters: to upregulate cellular ABCA1 protein; endogenous in cells; host or cells: J774 mouse macrophages; conditions: macrophages with vs without cAMP; listed as S26>Y
Sequence of ABCA1 (P41233 whole entry): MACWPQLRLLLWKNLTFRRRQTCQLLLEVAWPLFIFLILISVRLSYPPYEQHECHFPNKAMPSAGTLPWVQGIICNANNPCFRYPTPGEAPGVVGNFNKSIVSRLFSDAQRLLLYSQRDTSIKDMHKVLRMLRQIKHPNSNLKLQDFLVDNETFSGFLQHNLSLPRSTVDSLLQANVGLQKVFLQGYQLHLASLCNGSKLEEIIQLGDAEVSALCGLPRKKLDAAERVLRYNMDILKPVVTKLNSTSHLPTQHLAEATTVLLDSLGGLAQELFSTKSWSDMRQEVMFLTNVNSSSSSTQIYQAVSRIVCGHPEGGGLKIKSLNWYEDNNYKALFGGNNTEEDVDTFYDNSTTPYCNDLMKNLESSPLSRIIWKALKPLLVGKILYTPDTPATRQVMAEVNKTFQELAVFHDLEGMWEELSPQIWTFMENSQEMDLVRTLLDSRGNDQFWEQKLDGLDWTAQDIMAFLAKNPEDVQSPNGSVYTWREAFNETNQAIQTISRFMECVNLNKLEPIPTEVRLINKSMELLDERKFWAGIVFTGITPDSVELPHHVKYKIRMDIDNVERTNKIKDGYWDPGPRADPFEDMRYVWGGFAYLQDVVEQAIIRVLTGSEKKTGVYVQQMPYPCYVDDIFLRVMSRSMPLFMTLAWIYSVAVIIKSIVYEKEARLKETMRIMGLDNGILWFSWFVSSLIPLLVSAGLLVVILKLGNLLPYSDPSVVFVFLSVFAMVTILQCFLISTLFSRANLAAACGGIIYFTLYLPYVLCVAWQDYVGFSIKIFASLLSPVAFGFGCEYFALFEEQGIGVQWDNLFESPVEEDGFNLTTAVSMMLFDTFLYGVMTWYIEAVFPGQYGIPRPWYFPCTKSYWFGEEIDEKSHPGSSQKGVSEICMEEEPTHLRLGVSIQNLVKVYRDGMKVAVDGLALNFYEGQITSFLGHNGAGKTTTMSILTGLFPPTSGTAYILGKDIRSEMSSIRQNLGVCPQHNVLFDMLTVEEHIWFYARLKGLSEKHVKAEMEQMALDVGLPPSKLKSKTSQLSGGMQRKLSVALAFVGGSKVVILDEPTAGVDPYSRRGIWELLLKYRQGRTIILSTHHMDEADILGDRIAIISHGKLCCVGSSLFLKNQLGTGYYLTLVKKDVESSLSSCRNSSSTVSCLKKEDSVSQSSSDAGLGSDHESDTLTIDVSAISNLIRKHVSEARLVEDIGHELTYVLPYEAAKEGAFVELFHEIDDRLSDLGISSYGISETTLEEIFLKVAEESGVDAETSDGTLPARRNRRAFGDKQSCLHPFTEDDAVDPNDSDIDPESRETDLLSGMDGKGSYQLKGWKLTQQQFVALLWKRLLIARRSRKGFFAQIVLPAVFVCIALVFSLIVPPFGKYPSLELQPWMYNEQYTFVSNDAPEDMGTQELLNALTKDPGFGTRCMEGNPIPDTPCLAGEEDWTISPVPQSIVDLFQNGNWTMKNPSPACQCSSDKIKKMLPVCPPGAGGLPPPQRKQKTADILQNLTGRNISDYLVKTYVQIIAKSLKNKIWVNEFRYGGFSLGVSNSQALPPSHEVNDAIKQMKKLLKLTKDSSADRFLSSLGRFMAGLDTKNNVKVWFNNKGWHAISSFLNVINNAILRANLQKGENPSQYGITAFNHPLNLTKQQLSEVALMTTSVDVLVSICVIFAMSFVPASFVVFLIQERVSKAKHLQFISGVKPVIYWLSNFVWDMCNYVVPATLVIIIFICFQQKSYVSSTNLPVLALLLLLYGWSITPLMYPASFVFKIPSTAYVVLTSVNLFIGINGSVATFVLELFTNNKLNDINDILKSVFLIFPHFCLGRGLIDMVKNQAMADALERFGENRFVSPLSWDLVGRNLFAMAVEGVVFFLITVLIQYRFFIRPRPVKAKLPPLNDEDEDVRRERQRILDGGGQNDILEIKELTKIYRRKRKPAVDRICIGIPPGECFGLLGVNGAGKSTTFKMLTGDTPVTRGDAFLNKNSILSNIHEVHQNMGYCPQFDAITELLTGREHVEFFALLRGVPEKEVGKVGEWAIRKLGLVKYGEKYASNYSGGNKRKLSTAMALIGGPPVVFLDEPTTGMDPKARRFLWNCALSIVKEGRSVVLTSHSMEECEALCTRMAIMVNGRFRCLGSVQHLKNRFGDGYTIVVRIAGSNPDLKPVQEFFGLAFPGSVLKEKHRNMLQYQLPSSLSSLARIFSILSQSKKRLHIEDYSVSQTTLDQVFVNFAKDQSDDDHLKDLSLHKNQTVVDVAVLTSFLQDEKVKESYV
Procedure: In some embodiments, a polypeptide known to mediate cholesterol efflux (e.g., helix 9/10 of Apo A-I) is used to screen for additional mediators of cholesterol efflux in a cell based assay. For example, cell lines in which cholesterol efflux can be enhanced using a cAMP analog that up-regulates ABCA1 protein expression (e.g., J774 macrophages) can conveniently be used to assess the ability of a polypeptide of the present invention to mediate cholesterol efflux. The cells are incubated with labeled cholesterol (e.g., [^3H]cholesterol) under conditions appropriate for cholesterol uptake by the cells. Thus, cAMP or cAMP analogs (e.g., CPT-cAMP) are incubated with the cells for a suitable time before the initiation of cellular cholesterol efflux, i.e., prior to contacting the cells with a test polypeptide. Measurement of labeled cholesterol appearing in the medium is used to determine the cholesterol efflux mediating activity of the test polypeptide.
J774 mouse macrophages labeled with [^3H]cholesterol were treated (20 h) with 22-hydroxycholesterol (10 μM)/cis-retinoic acid (10 μM) to upregulate cellular ABCA1 protein.
Mouse macrophages were labeled with [^3H]cholesterol and treated with a cAMP analog to induce ABCA1 expression. […] Km values were calculated using the Michaelis-Menton equation and GraphPad Prism4 software.
Inverted sequence peptides synthesized with all L-amino acids and all D-amino acids were tested for cholesterol efflux activity using ABCA1 expressing J774 macrophages.
Two peptide analogs were engineered; the first replacing glutamic acid residues (E) at position 8 and 15 with aspartic acid residues (D), i.e., E8, 15>D polypeptides, and the second, replacing E1, 7, 8, 15, 18, 19 with D, i.e., all D (Asp) polypeptide. Cholesterol efflux activity was determined using J774 macrophages treated with and without a cAMP analog to modulate ABCA1 expression.
The impact of the A12>L substitution was also tested for activity, which also expanded non-polar surface area.
1-palmitoyl-2-oleoyl-phosphatidylcholine (POPC) was used to evaluate the cholesterol efflux properties of a formulated polypeptide of the present invention. […] To test cholesterol efflux activity, J774 mouse macrophages were labeled with [^3H]cholesterol and treated with and without cAMP to modulate ABCA1 expression.

[3] = tested on: Apolipoprotein E knock-out mice; assay: Atherosclerosis in Apolipoprotein E knock-out mice on Western diet, pooled series (Example 19); assay type: in vivo, mouse; conditions: 30 mg/kg IP, 21 injections, pooled data of three series
Procedure: The polypeptide of SEQ ID NO:4 and its Y26 analog have been evaluated with respect to ability to inhibit atherosclerosis in Apolipoprotein E knock-out mice. The mice were given Western diet for 18 weeks and then randomized to receive saline, free polypeptide or polypeptide-phospholipid complex. […] The degree of atherosclerosis was then determined in whole aorta and aortic root/sinus. Three experimental series were performed. […] The results are equal to or better than previously have been obtained with IV infusions of 40 mg/kg Apolipoprotein A-I Milano/phospholipids complex into Apo E knock-out mice (Shah et al., Circ., 97:780-5, 1998).
As noted above, data from three experimental series were pooled. Pooling of data is justified as only minor changes in the procedures were made (21 injections at 30 mg/kg over 42 and 21 days, respectively), and the diet regimens and sources of mice and polypeptide, respectively, were the same. In the first experiment S26 was substituted for Y26.

[4] = Pharmacokinetics of iodinated peptide in Sprague-Dawley rats; assay type: in vivo; conditions: for Half-live: IP, time interval 0-30 hours
Procedure: An iodinated version of polypeptide of SEQ ID NO:4, which was modified to have a Y residue at the C-terminus, was administered intravenously to Sprague-Dawley rats. The kinetics reflected a biphasic elimination, which is typical of peptides. […] This distribution pattern resembles what has been reported for ApoA-I and HDL. […] (See, FIG. 23).
The bioavailability in percent was calculated from the area under the curve IP as divided by area under the curve IV after adjustment for residual activity and the bioavailability was about 40%.

Molecule	pharmacokinetic properties compared to parent polypeptide [1]	ABCA1-dependent cholesterol efflux [2]	antiatherosclerotic effect (whole aorta and aortic root/sinus) [3]	Half-live ([4]; listed as SEQ ID NO: 4/Y26 peptide)	Half-live ([4]; modified to include a tyrosine at the C-terminus)	Half-live ([4]; which was modified to have a Y residue at the C-terminus)	distribution volume relative to plasma volume ([4]; IV)	Correlation ([4]; IV, 0-2.5 hours)	Half-live, first phase ([4]; IV, 0-2.5 hours)	Clearance ([4]; IV, 2.5-24 hours)	Half-live, terminal (second phase) ([4]; IV, 2.5-24 hours)	Volume of distribution ([4]; IV, 2.5-24 hours)	Half-live, terminal (second phase) ([4]; IV, 2.5-24 hours, modified to include a tyrosine at the C-terminus)	Half-live, terminal (second phase) ([4]; IV, 2.5-24 hours, which was modified to have a Y residue at the C-terminus)
CC(C)C[C@H](NC(=O)[C@H](Cc1ccccc1)NC(=O)[C@H](CCC(=O)O)NC(=O)[C@H](CCC(=O)O)NC(=O)[C@H](C)NC(=O)[C@H](Cc1ccccc1)NC(=O)[C@H](CCC(=O)O)NC(=O)[C@H](CCCNC(=N)N)NC(=O)[C@H](Cc1ccccc1)NC(=O)[C@H](C)NC(=O)[C@H](Cc1ccc(O)cc1)NC(=O)[C@H](Cc1ccccc1)NC(=O)[C@H](Cc1c[nH]c2ccccc12)NC(=O)[C@H](CCC(=O)O)NC(=O)[C@H](CCC(=O)O)NC(=O)[C@H](CC(C)C)NC(=O)[C@H](CCCCN)NC(=O)[C@H](CO)NC(=O)[C@H](CCCNC(=N)N)NC(=O)[C@@H](NC(=O)[C@@H](N)CCC(=O)O)C(C)C)C(=O)N[C@@H](C)C(=O)N[C@@H](CCCNC(=N)N)C(=O)N[C@@H](CC(C)C)C(=O)N[C@@H](CCCCN)C(=O)N[C@@H](CO)C(=O)O [A11>Y11] (H-EVRSKLEEWFYAFREFAEEFLARLKS-OH)	identical pharmacokinetic properties													
SEQ ID NO: 4/Y26: SEQ ID NO:4 with serine 26 replaced by tyrosine; iodinated version used for pharmacokinetics (EVRSKLEEWFAAFREFAEEFLARLKY; also: iodinated version used for pharmacokinetics)		stimulated ABCA1 cholesterol efflux like the parent 26-mer polypeptide; also recorded: retained ABCA1-dependent cholesterol efflux activity	significant antiatherosclerotic effects	11.2 h	about 11 hours	about 11.2 hours	approximately twice as large as the plasma volume	−0.95	4.5 h	1.2 mL/h/kg	33.7 h	0.0557 L/kg	about 34 hours	approximately 34 hours
